From patent US20250163130A1, “LIGAND GATED ION CHANNELS AND METHODS OF USE” (Trames Bio, Inc., priority 2022, published 2025) come the findings set out here.

What all share (assay type): cell-based
One test concerns the target T1, CODA1237 (Homo sapiens, UniProt P36544, F159M/H163T/I152M/R155K/V154L/W156N/Y151P).
T1 construct: expressed in transfected cells; host or cells: Lenti-X 293T (LX293T, Clontech) stably expressing mutant YFP (H148Q/I152L) reporter
The experiment in a line: Anion reporter (YFP quench) plate assay, ligand response of cells expressing CODA1237 compared with CODA71. The note with it: FIG. 1, various ligand doses.

The test system of test [1] is Lenti-X 293T cells expressing mutant YFP reporter. Description: Anion reporter (YFP quench) plate assay, responsiveness of engineered receptors to acetylcholine or TC-5619. The note with it: FIG. 3, increasing doses of acetylcholine.
The next test concerns HEK293T cells.

Residue numbers refer to the chain shown, from its start. In names and notes the source's numbering stands.

T1 sequence (P36544 with tags, fused parts or gaps Y151P/I152M/V154L/R155K/W156N/F159M/H163T): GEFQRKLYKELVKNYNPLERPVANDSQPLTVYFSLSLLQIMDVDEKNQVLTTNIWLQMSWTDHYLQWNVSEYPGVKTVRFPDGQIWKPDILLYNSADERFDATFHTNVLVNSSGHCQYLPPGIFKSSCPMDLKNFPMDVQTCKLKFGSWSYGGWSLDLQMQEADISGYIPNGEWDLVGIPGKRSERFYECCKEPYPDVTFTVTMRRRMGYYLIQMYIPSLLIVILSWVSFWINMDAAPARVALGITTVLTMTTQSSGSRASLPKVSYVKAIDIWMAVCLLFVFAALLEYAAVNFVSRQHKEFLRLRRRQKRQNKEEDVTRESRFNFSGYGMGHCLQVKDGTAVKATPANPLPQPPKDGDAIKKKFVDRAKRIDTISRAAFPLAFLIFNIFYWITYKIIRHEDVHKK

As to `c1ccc(-c2nnc(O[C@@H]3C4CC5C[C@H]3CN(C5)C4)s2)cc1` [ABT-126], the “Responsiveness (percent quench of YFP fluorescence) of cells expressing CODA1237 compared with cells expressing CODA71” value on CODA1237 was “more responsive”.

Regarding `O=C(N[C@@H]1CN2CCC1CC2)c1n[nH]c2ccccc12` [RG3487], the “Responsiveness (percent quench of YFP fluorescence) of cells expressing CODA1237 compared with cells expressing CODA71” value at CODA1237 is on record as “more responsive”.

B1: CODA1343: α7-nAChR(Gly-cys) LBD: GlyRα3 isoform K IPD, SEQ ID NO: 71 (protein)
chain: MRCSPGGVWLALAASLLHVSLQGEFQRKLYKELVKNYNPLERPVANDSQPLTVYFSLSLLQIMDVDEKNQVLTTNIWLQMSWTDHYLQWNVSEYPGVKTVRFPDGQIWKPDILLYNSADERFDATFHTNVLVNSSGHCQYLPPGIFKSSCPMDLKNFPMDVQTCKLKFGSWSYGGWSLDLQMQEADISGYIPNGEWDLVGIPGKRSERFYECCKEPYPDVTFTVTMRRRMGYYLIQMYIPSLLIVILSWVSFWINMDAAPARVALGITTVLTMTTQSSGSRASLPKVSYVKAIDIWMAVCLLFVFSALLEYAAVNFVSRQHKELLRFRRKRKNKDDEVRESRFSFTAYGMGPCLQAKDGMTPKGPNHPVQVMPKSPDEMRKVFIDRAKKIDTISRACFPLAFLIFNIFYWVIYKILRHEDIHQQQD
modifications: CHRNA7_(Cys-loop)/GLRA3 isoform K
On to B1, for which the “Responsiveness to acetylcholine (percent quench of YFP) using CODA71 as the reference point” value in test [1] is reported as “higher responsiveness”. In the test on HEK293T cells, the “Percentage of surface expressing (α-bungarotoxin staining positive) cells” value was “higher percentage of surface expressing cells” and the “Surface expression level (mean fluorescent intensity of α-bungarotoxin staining positive cells)” value (“Surface expression level” for short) is “higher surface expression”.

B2: CODA1345: α7-nAChR LBD: GlyRα3 isoform K IPD, SEQ ID NO: 70 (protein)
chain: B1 chain with P151Y, M152I, L154V, K155R, N156W, M159F, T163H
modifications: CHRNA7/GLRA3 isoform K
In the case of B2, in the test on HEK293T cells, the “Percentage of surface expressing (α-bungarotoxin staining positive) cells” value is listed as “higher percentage of surface expressing cells” and the “Surface expression level” value was “higher surface expression”.

B3: CODA1344: α7-nAChR LBD: GlyRα3 isoform L IPD, SEQ ID NO: 63 (protein)
chain: MRCSPGGVWLALAASLLHVSLQGEFQRKLYKELVKNYNPLERPVANDSQPLTVYFSLSLLQIMDVDEKNQVLTTNIWLQMSWTDHYLQWNVSEYPGVKTVRFPDGQIWKPDILLYNSADERFDATFHTNVLVNSSGHCQYLPPGIFKSSCYIDVRWFPFDVQHCKLKFGSWSYGGWSLDLQMQEADISGYIPNGEWDLVGIPGKRSERFYECCKEPYPDVTFTVTMRRRMGYYLIQMYIPSLLIVILSWVSFWINMDAAPARVALGITTVLTMTTQSSGSRASLPKVSYVKAIDIWMAVCLLFVFSALLEYAAVNFVSRQHKELLRFRRKRKNKTEAFALEKFYRFSDMDDEVRESRFSFTAYGMGPCLQAKDGMTPKGPNHPVQVMPKSPDEMRKVFIDRAKKIDTISRACFPLAFLIFNIFYWVIYKILRHEDIHQQQD
modifications: CHRNA7/GLRA3 isoform L
B3: in test [1], the “Responsiveness to acetylcholine (percent quench of YFP) using CODA71 as the reference point” value is listed as “lower responsiveness”.

B4: CODA1298: α7-nAChR(Gly-cys) LBD: GlyRα2 IPD, SEQ ID NO: 65 comprising T225I mutation (protein)
chain: MRCSPGGVWLALAASLLHVSLQGEFQRKLYKELVKNYNPLERPVANDSQPLTVYFSLSLLQIMDVDEKNQVLTTNIWLQMSWTDHYLQWNVSEYPGVKTVRFPDGQIWKPDILLYNSADERFDATFHTNVLVNSSGHCQYLPPGIFKSSCPMDLKNFPMDVQTCKLKFGSWSYGGWSLDLQMQEADISGYIPNGEWDLVGIPGKRSERFYECCKEPYPDVTFTVIMRRRMGYYLIQMYIPSLLIVILSWVSFWINMDAAPARVALGITTVLTMTTQSSGSRASLPKVSYVKAIDIWMAVCLLFVFAALLEYAAVNFVSRQHKEFLRLRRRQKRQNKEEDVTRESRFNFSGYGMGHCLQVKDGTAVKATPANPLPQPPKDGDAIKKKFVDRAKRIDTISRAAFPLAFLIFNIFYWITYKIIRHEDVHKK
modifications: CHRNA7 (Cys-loop)/GLRA2
Take B4: the “Surface expression level” value in the test with HEK293T cells is listed as “improves the surface expression level”.

B5: CODA1237: α7-nAChR(Gly-cys) LBD: GlyRα2 IPD, SEQ ID NO: 65 (protein)
chain: B4 chain with I225T
modifications: CHRNA7 (Cys-loop)/GLRA2
With B5, the “Surface expression level” value with HEK293T cells is “higher surface expression”.
